Values quoted from earlier work as cited in article PMC2846211.

Target: DNA polymerase gamma accessory subunit (Homo sapiens) (UniProt Q9UHN1)
UniProt Q9UHN1, sequence (Q9UHN1 2-485): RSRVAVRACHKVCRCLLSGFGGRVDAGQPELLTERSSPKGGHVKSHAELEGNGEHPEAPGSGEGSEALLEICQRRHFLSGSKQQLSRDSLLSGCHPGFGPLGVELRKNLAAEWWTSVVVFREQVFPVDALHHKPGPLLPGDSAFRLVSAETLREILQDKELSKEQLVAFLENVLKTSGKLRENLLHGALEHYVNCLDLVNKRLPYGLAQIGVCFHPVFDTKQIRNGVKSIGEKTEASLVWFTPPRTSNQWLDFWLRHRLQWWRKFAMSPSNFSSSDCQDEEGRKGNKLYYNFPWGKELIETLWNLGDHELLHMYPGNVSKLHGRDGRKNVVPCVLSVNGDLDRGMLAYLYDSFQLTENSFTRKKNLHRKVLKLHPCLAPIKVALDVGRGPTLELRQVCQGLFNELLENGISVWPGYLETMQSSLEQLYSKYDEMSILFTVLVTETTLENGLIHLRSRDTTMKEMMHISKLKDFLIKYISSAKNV

Kd: 35 nM
Substance: DNA polymerase gamma catalytic subunit (from UniProt P54098)
